# Experimental data: article PMC6374115
# B1: cryAB (crystallin alphaB / HspB5): T170A (protein)
# parent chain: MDIAIHHPWIRRPFFPFHSPSRLFDQFFGEHLLESDLFPTSTSLSPFYLRPPSFLRAPSWFDTGLSEMRLEKDRFSVNLDVKHFSPEELKVKVLGDVIEVHGKHEERQDEHGFISREFHRKYRIPADVDPLTITSSLSSDGVLTVNGPRKQVSGPERTIPITREEKPAVTAAPKK
# Assay: live-cell confocal, cytosolic distribution
# Conditions: glycan lost; control: WT YFP-cryAB
protein,measurement,value
B1,localisation_or_trafficking,changes
